This data set in a line: self-splicing fitness, log relative to wild type (ln ratio); higher = more splicing; Tetrahymena group I intron in knt gene, E. coli kanamycin selection, DiMSum; sequences stand for … in CUCUCU…GGAGGGAAAAGUUAUCAGGCAUGCACCUGGUAGCUAGUCUUUAAACCAAUAGAUUGCAUCGGUUUAAAAGGCAAGACCGUCAAAUUGCGGGAAAGGGGUCAACAGCCGUUCAGUACCAAGUCUCAGGGGAAACUUUGAGAUGGCCUUGCAAAGGGUAUGGUAAUAAGCUGACGGACAUGGUCCUAACCACGCAGCCAAGUCCUAAGUCAACAGAUCUUCUGUUGAUAUGGAUGCAGUUCACAGACUAAAUGUCGGUCGGGGAAGAUGUAUUCUUCUCAUAAGAUAUAGUCGGACCUCUCCUUAAUGGGAGCUAGCGGAUGAAGUGAUGCAACACUGGAGCCGCUGGGAACUAAUUUGUAUGCGAAAGUAUAUUGAUUAGUUUUGGAGUACUCGUGGUCG
A digest of the protocol:
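Fitness was computed with DiMSum as the error-weighted combination of replicate fold changes, kanamycin versus none, each normalised to wild type. The library randomised all eight intron nucleotides of the P1ex region, with the intron placed in the knt kanamycin-resistance gene on pET-22b(+) in E. coli BL21(DE3). Six replicate transformations were grown overnight at 37°C or 30°C on LB agar with or without 25 μg/mL kanamycin, plus 100 μg/mL carbenicillin, 50 μM IPTG and 0.2% rhamnose. Pooled colonies were amplicon-sequenced on an Illumina HiSeq 2500.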

± gives the uncertainty stated by the source.

In the case of CAAAAGCAAUAUUACGGCGU, the “self-splicing fitness (ln)” value (30 °C) was -1.23 ± 0.069 and the “self-splicing fitness (ln)” value (37 °C) is -0.3 ± 0.086. With UCCUAGCAAUAUUACGUGUU, the “self-splicing fitness (ln)” value is -3.7 ± 0.21 (30 °C) and -2.94 ± 0.19 (37 °C). On the same counts, the results for CCAGAGCAAUAUUACGAAGG are -3.47 ± 0.19 and -1.92 ± 0.22. As for AACCAGCAAUAUUACGUUUU, the “self-splicing fitness (ln)” value runs as follows: (30 °C) -2.11 ± 0.057; (37 °C) -1.27 ± 0.065. With GCGCAGCAAUAUUACGCCCG, the “self-splicing fitness (ln)” value is -1.59 ± 0.2 (30 °C) and 0.0341 ± 0.27 (37 °C). Turning to GGUGAGCAAUAUUACGACGG, the “self-splicing fitness (ln)” value is -2.18 ± 0.29 (30 °C) and -1.74 ± 0.3 (37 °C). Turning to UGCGAGCAAUAUUACGCUUC, the “self-splicing fitness (ln)” value runs as follows: (30 °C) -3.96 ± 0.39; (37 °C) -3.67 ± 0.39. For the sequence UCCCAGCAAUAUUACGGCCG, the “self-splicing fitness (ln)” value is -3.44 ± 0.27 (30 °C) and -2.02 ± 0.32 (37 °C). On the same counts, the results for AGGUAGCAAUAUUACGUUUU are -2.585 ± 0.016 and -1.54 ± 0.034. CAGCAGCAAUAUUACGCGAA: the “self-splicing fitness (ln)” value by setting is: (30 °C) -2.55 ± 0.13; (37 °C) -1.82 ± 0.15. On the same counts, the results for AAAUAGCAAUAUUACGCAAU are -2.44 ± 0.13 and -0.689 ± 0.12. As to ACAGAGCAAUAUUACGUAAU, the “self-splicing fitness (ln)” value is -3.43 ± 0.4 (30 °C) and -2.5 ± 0.41 (37 °C).

For the sequence UGAUAGCAAUAUUACGGGGU, the “self-splicing fitness (ln)” value is -2.68 ± 0.21 (30 °C) and -2.35 ± 0.28 (37 °C). Consider AAGUAGCAAUAUUACGCGAG, for which the “self-splicing fitness (ln)” value was -1.74 ± 0.11 (30 °C) and -0.889 ± 0.13 (37 °C).

Turning to CUACAGCAAUAUUACGCACA, the “self-splicing fitness (ln)” value was -3.12 ± 0.2 (30 °C) and -3.29 ± 0.27 (37 °C).

As for GGUUAGCAAUAUUACGCGGU, the “self-splicing fitness (ln)” value was -2.85 ± 0.49 (30 °C) and -2.36 ± 0.35 (37 °C).

Regarding CGGAAGCAAUAUUACGUAUA, the “self-splicing fitness (ln)” value (30 °C) is -2.82 ± 0.24 and the “self-splicing fitness (ln)” value (37 °C) was -2.63 ± 0.3. Take UUCCAGCAAUAUUACGCAAC: the “self-splicing fitness (ln)” value (30 °C) is -3.02 ± 0.44. Still for that read-out and setting: the result for CCCGAGCAAUAUUACGAAUC reads -1.59 ± 0.16. On to GUCAAGCAAUAUUACGAGAG, for which the “self-splicing fitness (ln)” value runs as follows: (30 °C) -2.41 ± 0.18; (37 °C) -2.31 ± 0.27. Consider GAGGAGCAAUAUUACGGUAU, for which the “self-splicing fitness (ln)” value is -2.88 ± 0.35 (30 °C) and -1.25 ± 0.45 (37 °C).

AUAAAGCAAUAUUACGAACC: the “self-splicing fitness (ln)” value by setting is: (30 °C) -1.28 ± 0.18; (37 °C) -0.77 ± 0.25. On the same counts, the results for UCUGAGCAAUAUUACGGGGA are -2.89 ± 0.2 and -1.97 ± 0.19. On the same counts, the results for GGUUAGCAAUAUUACGUGUC are -1.03 ± 0.097 and -0.323 ± 0.12. CUGAAGCAAUAUUACGGCGG: the “self-splicing fitness (ln)” value is -0.674 ± 0.073 (30 °C) and -0.503 ± 0.1 (37 °C). On the same counts, the results for AUAGAGCAAUAUUACGGGCA are -2.19 ± 0.097 and -1.28 ± 0.11.

AUAGAGCAAUAUUACGUGGA: the “self-splicing fitness (ln)” value (30 °C) was -3.98 ± 0.27 and the “self-splicing fitness (ln)” value (37 °C) is -3.39 ± 0.29. For the sequence GACGAGCAAUAUUACGCGCG, the “self-splicing fitness (ln)” value is -3.15 ± 0.16 (30 °C) and -2.7 ± 0.25 (37 °C). On the same counts, the results for AACAAGCAAUAUUACGUCUU are -0.312 ± 0.057 and 0.0818 ± 0.077. Regarding GCACAGCAAUAUUACGCGCU, the “self-splicing fitness (ln)” value runs as follows: (30 °C) -2.39 ± 0.22; (37 °C) -1.1 ± 0.19. On the same counts, the results for UUUCAGCAAUAUUACGCACU are -0.429 ± 0.077 and -0.09 ± 0.092. Consider CAACAGCAAUAUUACGAUUC, for which the “self-splicing fitness (ln)” value (30 °C) was -0.966 ± 0.087 and the “self-splicing fitness (ln)” value (37 °C) is -0.733 ± 0.11. For the sequence CAUUAGCAAUAUUACGCGCC, the “self-splicing fitness (ln)” value by setting is: (30 °C) -3.41 ± 0.32; (37 °C) -2.26 ± 0.35.

Regarding UACGAGCAAUAUUACGCAAU, the “self-splicing fitness (ln)” value (30 °C) is -3.04 ± 0.17 and the “self-splicing fitness (ln)” value (37 °C) was -2.65 ± 0.18. On the same counts, the results for UACAAGCAAUAUUACGACGG are -0.767 ± 0.059 and -0.442 ± 0.079. On the same counts, the results for GCUGAGCAAUAUUACGCUAG are -3.28 ± 0.16 and -1.27 ± 0.14. On the same counts, the results for AAUCAGCAAUAUUACGGAGC are -2.64 ± 0.17 and -0.807 ± 0.16.

Regarding UUGCAGCAAUAUUACGUCGU, the “self-splicing fitness (ln)” value was -1.8 ± 0.16 (30 °C) and -1.17 ± 0.2 (37 °C). CUAGAGCAAUAUUACGGGAU: the “self-splicing fitness (ln)” value reads like this: (30 °C) -2.94 ± 0.17; (37 °C) -1.96 ± 0.23. As for ACAUAGCAAUAUUACGGGCU, the “self-splicing fitness (ln)” value (30 °C) is -1.4 ± 0.13 and the “self-splicing fitness (ln)” value (37 °C) was -0.715 ± 0.16. On to UCAUAGCAAUAUUACGGUAU, for which, where the note is “37 °C”, the “self-splicing fitness (ln)” value was -2.43 ± 0.28. Regarding UCUAAGCAAUAUUACGUAAA, the “self-splicing fitness (ln)” value is -1.36 ± 0.097 (30 °C) and -0.985 ± 0.12 (37 °C). On to GGCCAGCAAUAUUACGAUGG, for which the “self-splicing fitness (ln)” value is -4.28 ± 0.33 (30 °C) and -2.67 ± 0.33 (37 °C). On the same counts, the results for UCCAAGCAAUAUUACGACCC are -3.47 ± 0.22 and -1.98 ± 0.17. Regarding ACUGAGCAAUAUUACGUCGA, the “self-splicing fitness (ln)” value was -3.59 ± 0.22 (30 °C) and -2.07 ± 0.18 (37 °C). On the same counts, the results for UACCAGCAAUAUUACGCGGA are -1.69 ± 0.079 and -1.04 ± 0.082.

With GAUGAGCAAUAUUACGAGUG, the “self-splicing fitness (ln)” value was -3.06 ± 0.17 (30 °C) and -0.833 ± 0.18 (37 °C). On the same counts, the results for GAAGAGCAAUAUUACGUUCA are -1.33 ± 0.13 and -0.0689 ± 0.13. On the same counts, the results for CUCAAGCAAUAUUACGUAAA are -3.37 ± 0.18 and -2.48 ± 0.25. On the same counts, the results for GUUUAGCAAUAUUACGUCGA are -1.43 ± 0.28 and -0.62 ± 0.28. In the case of CCGGAGCAAUAUUACGCGGG, the “self-splicing fitness (ln)” value reads like this: (30 °C) -4.25 ± 0.39; (37 °C) -2.25 ± 0.19. For GCGUAGCAAUAUUACGGGCA, the “self-splicing fitness (ln)” value runs as follows: (30 °C) -0.858 ± 0.2; (37 °C) -0.854 ± 0.17. On the same counts, the results for UUUAAGCAAUAUUACGGUAU are -3.05 ± 0.17 and -0.94 ± 0.17. On the same counts, the results for AACGAGCAAUAUUACGAGGC are -2.92 ± 0.29 and -2.97 ± 0.48. On the same counts, the results for UAAGAGCAAUAUUACGCUUG are -2.66 ± 0.23 and -1.38 ± 0.18. Consider CGCCAGCAAUAUUACGGGUC, for which the “self-splicing fitness (ln)” value (30 °C) is -2.81 ± 0.14 and the “self-splicing fitness (ln)” value (37 °C) is -2.6 ± 0.17. As to AAUAAGCAAUAUUACGUGGA, the “self-splicing fitness (ln)” value is, setting by setting: (30 °C) -3.22 ± 0.22; (37 °C) -2.42 ± 0.19. UAAUAGCAAUAUUACGCGAG: the “self-splicing fitness (ln)” value is -1.62 ± 0.14 (30 °C) and -1.46 ± 0.13 (37 °C). On the same counts, the results for GAUAAGCAAUAUUACGCACC are -1.96 ± 0.16 and -0.327 ± 0.2. With CUGGAGCAAUAUUACGUCAG, the “self-splicing fitness (ln)” value was -4.05 ± 0.46 (30 °C) and -2.59 ± 0.29 (37 °C). On to UUAUAGCAAUAUUACGUUCC, for which the “self-splicing fitness (ln)” value (37 °C) is -2.09 ± 0.48. For AGCGAGCAAUAUUACGUCAA, the “self-splicing fitness (ln)” value is -2.95 ± 0.48 (30 °C) and -0.741 ± 0.22 (37 °C). On the same counts, the results for UGCCAGCAAUAUUACGACGG are -3.23 ± 0.12 and -1.42 ± 0.13.

Regarding GCGAAGCAAUAUUACGCCAC, the “self-splicing fitness (ln)” value (37 °C) is -2.24 ± 0.42.

UGAAAGCAAUAUUACGAGUC: the “self-splicing fitness (ln)” value was -3.42 ± 0.28 (30 °C) and -2.28 ± 0.26 (37 °C). On the same counts, the results for GUCCAGCAAUAUUACGCCCU are -0.888 ± 0.13 and -0.617 ± 0.18. On the same counts, the results for CCUAAGCAAUAUUACGCACU are -2.71 ± 0.23 and -2.96 ± 0.23.

As to CACAAGCAAUAUUACGCCCA, the “self-splicing fitness (ln)” value by setting is: (30 °C) -0.966 ± 0.091; (37 °C) 0.114 ± 0.09. With AGACAGCAAUAUUACGUAGG, the “self-splicing fitness (ln)” value (30 °C) is -2.6 ± 0.11 and the “self-splicing fitness (ln)” value (37 °C) was -1.28 ± 0.11.

GACUAGCAAUAUUACGCCCU: the “self-splicing fitness (ln)” value (30 °C) was -9.77e-06 ± 0.2 and the “self-splicing fitness (ln)” value (37 °C) was -0.315 ± 0.21.

As for ACCCAGCAAUAUUACGACCG, the “self-splicing fitness (ln)” value (30 °C) was -2.05 ± 0.17 and the “self-splicing fitness (ln)” value (37 °C) is -0.527 ± 0.18. On the same counts, the results for GCCUAGCAAUAUUACGUCGA are -1.67 ± 0.17 and -1.6 ± 0.21. For UCAUAGCAAUAUUACGAAAC, for the setting “30 °C”, the “self-splicing fitness (ln)” value is -2.6 ± 0.25. Turning to ACUAAGCAAUAUUACGGUUC, the “self-splicing fitness (ln)” value is -3.92 ± 0.2 (30 °C) and -1.42 ± 0.13 (37 °C). On the same counts, the results for CGUCAGCAAUAUUACGGAGA are -3.44 ± 0.29 and -2.76 ± 0.27. On the same counts, the results for AUCUAGCAAUAUUACGUUCA are -1.33 ± 0.099 and -0.242 ± 0.085.

As for CUACAGCAAUAUUACGGCAG, the “self-splicing fitness (ln)” value is, setting by setting: (30 °C) -1.07 ± 0.063; (37 °C) -0.452 ± 0.088.

Source of the values: the supplement of paper PMC7877785.
